These results are taken from article doi:10.1101/2025.09.14.676173.

For assay [1], the target named is S2P.BA5.VI-1147 A570C/N967C (I1) (SARS CoV-2 omicron BA.5). The assay can be described thus: cross-linking.
In assay [2] the target is S2P.BA5.VI-1147 D571C/N967C (D17) (SARS CoV-2 omicron BA.5). The assay can be described thus: cross-linking.

A word on the stoichiometry N: it is a count of units in the complex or per binding partner.

In assay [1], “S2P.BA5.VI-1147 A570C/N967C (I1) (domain or fragment)” displayed a stoichiometry N of 3.

On to “S2P.BA5.VI-1147 D571C/N967C (D17) (domain or fragment)”, for which the stoichiometry N in assay [2] amounted to 3.
